Data on six sequences can be found in the supplement of paper PMC11246515.

The nature of this data set: total protein half-life in vivo (active degradation + dilution); higher = more stable protein.
Setting [1] is: E. coli NCM3722 delta-clpP delta-lon delta-hslV, growth: N-lim chemostat, doubling time 6 h.
The mark [2] stands for this setting: E. coli NCM3722 delta-clpP, growth: N-lim chemostat, doubling time 6 h.
The mark [3] stands for this setting: E. coli NCM3722 delta-hslV, growth: N-lim chemostat, doubling time 6 h.
Where [4] appears, read: E. coli NCM3722 delta-lon, growth: N-lim chemostat, doubling time 6 h.
Where [5] appears, read: E. coli NCM3722 delta-smpB, growth: N-lim chemostat, doubling time 6 h.
Where [6] appears, read: wild type E. coli NCM3722, growth: C-lim chemostat, doubling time 3 h.
Setting [7] is: wild type E. coli NCM3722, growth: C-lim chemostat, doubling time 6 h.
Where [8] appears, read: wild type E. coli NCM3722, growth: C-lim chemostat, doubling time 12 h.
Setting [9] is: wild type E. coli NCM3722, growth: N-lim chemostat, doubling time 6 h.
Where [10] appears, read: wild type E. coli NCM3722, growth: N-lim chemostat, doubling time 12 h.
The mark [11] stands for this setting: wild type E. coli NCM3722, growth: P-lim chemostat, doubling time 6 h.
Setting [12] is: wild type E. coli NCM3722, growth: P-lim chemostat, doubling time 12 h.

± gives the standard deviation of the averaged measurements.

As for “MKRIAFVFSTAPHGTAAGREGLDALLATSALTDDLAVFFIADGVFQLLPGQKPDAVLARDYIATFKLLGLYDIEQCWVCAASLRERGLDPQTPFVVEATPLEADALRRELANYDVILRF”, the “total protein half-life in vivo” value is 5 ± 0.57 h under setting [1]; 4.73 h under setting [2]; 4.7 ± 0.82 h under setting [3]; 5.18 ± 0.19 h under setting [4]; 4.61 ± 0.23 h under setting [5]; > 4 h under setting [6]. Further, the “total protein half-life in vivo” value reads like this: under setting [7], 6 ± 0.18 h; under setting [8], 11.2 ± 0.57 h; under setting [9], 4.83 ± 0.091 h; under setting [10], 7.67 ± 0.38 h; under setting [11], 5.89 ± 1.2 h; under setting [12], 13.9 ± 2.3 h.

As to “MDSSFTPIEQMLKFRASRHEDFPYQEILLTRLCMHMQSKLLENRNKMLKAQGINETLFMALITLESQENHSIQPSELSCALGSSRTNATRIADELEKRGWIERRESDNDRRCLHLQLTEKGHEFLREVLPPQHNCLHQLWSALSTTEKDQLEQITRKLLSRLDQMEQDGVVLEAMS [P0ACR9]”, the “total protein half-life in vivo” value is, setting by setting: under setting [1], 6.37 ± 0.21 h; under setting [2], 6.705 ± 0.017 h; under setting [3], 5.82 ± 1 h; under setting [4], 5.39 ± 0.61 h; under setting [5], 4.81 ± 0.11 h; under setting [6], 2.7 ± 0.27 h. Also, the “total protein half-life in vivo” value by setting is: under setting [7], 5.49 ± 0.42 h; under setting [8], 11 ± 0.57 h; under setting [9], 4.78 ± 0.44 h; under setting [10], 7.04 ± 0.45 h; under setting [11], 4.86 ± 0.51 h; under setting [12], 9.8 ± 0.2 h.

With “MADLDDIKDGKDFRTDQPQKNIPFTLKGCGALDWGMQSRLSRIFNPKTGKTVMLAFDHGYFQGPTTGLERIDINIAPLFEHADVLMCTRGILRSVVPPATNRPVVLRASGANSILAELSNEAVALSMDDAVRLNSCAVAAQVYIGSEYEHQSIKNIIQLVDAGMKVGMPTMAVTGVGKDMVRDQRYFSLATRIAAEMGAQIIKTYYVEKGFERIVAGCPVPIVIAGGKKLPEREALEMCWQAIDQGASGVDMGRNIFQSDHPVAMMKAVQAVVHHNETADRAYELYLSEKQ”, the “total protein half-life in vivo” value amounted to 4.41 ± 0.29 h under setting [1]; 3.51 ± 0.53 h under setting [2]; 3.03 ± 0.036 h under setting [3]; 3.91 ± 0.79 h under setting [4]; 3.6 ± 0.39 h under setting [5]; 3.27 ± 0.084 h under setting [6]. In addition, the “total protein half-life in vivo” value runs as follows: under setting [7], 5.1 ± 0.23 h; under setting [8], 8.52 ± 0.53 h; under setting [9], 3.58 h; under setting [10], 4.43 ± 0.74 h; under setting [11], 5.44 ± 0.21 h; under setting [12], 11 ± 0.47 h.

“MANIEIRQETPTAFYIKVHDTDNVAIIVNDNGLKAGTRFPDGLELIEHIPQGHKVALLDIPANGEIIRYGEVIGYAVRAIPRGSWIDESMVVLPEAPPLHTLPLATKVPEPLPPLEGYTFEGYRNADGSVGTKNLLGITTSVHCVAGVVDYVVKIIERDLLPKYPNVDGVVGLNHLYGCGVAINAPAAVVPIRTIHNISLNPNFGGEVMVIGLGCEKLQPERLLTGTDDVQAIPVESASIVSLQDEKHVGFQSMVEDILQIAERHLQKLNQRQRETCPASELVVGMQCGGSDAFSGVTANPAVGYASDLLVRCGATVMFSEVTEVRDAIHLLTPRAVNEEVGKRLLEEMEWYDNYLNMGKTDRSANPSPGNKKGGLANVVEKALGSIAKSGKSAIVEVLSPGQRPTKRGLIYAATPASDFVCGTQQVASGITVQVFTTGRGTPYGLMAVPVIKMATRTELANRWFDLMDINAGTIATGEETIEEVGWKLFHFILDVASGKKKTFSDQWGLHNQLAVFNPAPVT”: the “total protein half-life in vivo” value turned out to be 4.25 ± 0.3 h under setting [1]; 2.43 h under setting [2]; 2.1 ± 0.18 h under setting [6]; 3.22 ± 0.48 h under setting [7]; 3.39 ± 0.27 h under setting [8]; 3.6 h under setting [12].

Regarding “MDTKKIFKHIPWVILGIIGAFCLAVVALRRGEHISALWIVVASVSVYLVAYRYYSLYIAQKVMKLDPTRATPAVINNDGLNYVPTNRYVLFGHHFAAIAGAGPLVGPVLAAQMGYLPGTLWLLAGVVLAGAVQDFMVLFISSRRNGASLGEMIKEEMGPVPGTIALFGCFLIMIIILAVLALIVVKALAESPWGVFTVCSTVPIALFMGIYMRFIRPGRVGEVSVIGIVLLVASIYFGGVIAHDPYWGPALTFKDTTITFALIGYAFVSALLPVWLILAPRDYLATFLKIGVIVGLALGIVVLNPELKMPAMTQYIDGTGPLWKGALFPFLFITIACGAVSGFHALISSGTTPKLLANETDARFIGYGAMLMESFVAIMALVAASIIEPGLYFAMNTPPAGLGITMPNLHEMGGENAPIIMAQLKDVTAHAAATVSSWGFVISPEQILQTAKDIGEPSVLNRAGGAPTLAVGIAHVFHKVLPMADMGFWYHFGILFEALFILTALDAGTRSGRFMLQDLLGNFIPFLKKTDSLVAGIIGTAGCVGLWGYLLYQGVVDPLGGVKSLWPLFGISNQMLAAVALVLGTVVLIKMKRTQYIWVTVVPAVWLLICTTWALGLKLFSTNPQMEGFFYMASQYKEKIANGTDLTAQQIANMNHIVVNNYTNAGLSILFLIVVYSIIFYGFKTWLAVRNSDKRTDKETPYVPIPEGGVKISSHH”, the “total protein half-life in vivo” value was 5.48 ± 0.6 h under setting [1]; 4.43 h under setting [3]; 4.19 ± 0.26 h under setting [4]; 5.39 ± 0.18 h under setting [5]; > 4 h under setting [6]; 4.24 h under setting [7]. Also, the “total protein half-life in vivo” value was 6.86 h under setting [8]; 5.42 ± 2.2 h under setting [9]; 9.16 ± 0.46 h under setting [10]; 5.57 ± 0.48 h under setting [11]; 8.62 ± 0.6 h under setting [12].

For the sequence “MKQALRVAFGFLILWASVLHAEVRIVIDSGVDSGRPIGVVPFQWAGPGAAPEDIGGIVAADLRNSGKFNPLDRARLPQQPGSAQEVQPAAWSALGIDAVVVGQVTPNPDGSYNVAYQLVDTGGAPGTVLAQNSYKVNKQWLRYAGHTASDEVFEKLTGIKGAFRTRIAYVVQTNGGQFPYELRVSDYDGYNQFVVHRSPQPLMSPAWSPDGSKLAYVTFESGRSALVIQTLANGAVRQVASFPRHNGAPAFSPDGSKLAFALSKTGSLNLYVMDLASGQIRQVTDGRSNNTEPTWFPDSQNLAFTSDQAGRPQVYKVNINGGAPQRITWEGSQNQDADVSSDGKFMVMVSSNGGQQHIAKQDLATGGVQVLSSTFLDETPSLAPNGTMVIYSSSQGMGSVLNLVSTDGRFKARLPATDGQVKFPAWSPYL [P0A855]”, the “total protein half-life in vivo” value amounted to 5.6 ± 0.21 h under setting [1]; 6.39 ± 0.61 h under setting [2]; 6.28 ± 0.33 h under setting [4]; 6.07 ± 0.73 h under setting [5]; 3.14 ± 0.04 h under setting [6]; 6.59 ± 0.57 h under setting [7]. Also, the “total protein half-life in vivo” value under setting [8] was 11.3 ± 0.41 h; the “total protein half-life in vivo” value under setting [9] turned out to be 6.31 ± 0.17 h; the “total protein half-life in vivo” value under setting [10] stood at 13.8 ± 1.4 h; the “total protein half-life in vivo” value under setting [11] is 5.89 ± 0.3 h; the “total protein half-life in vivo” value under setting [12] amounted to 13.05 ± 0.13 h.
